# Test results taken from patent US20240026019A1 (Innovent, published 2024).
# T1: human TNFR2 overexpressed on CHO-S cells (CHOS-hTNFR2) (human, UniProt P20333 23-461)
# T1 construct: also called hTNFR2 CHO-S; human TNFR2 molecule overexpressed on CHO-S cells
# T1 sequence: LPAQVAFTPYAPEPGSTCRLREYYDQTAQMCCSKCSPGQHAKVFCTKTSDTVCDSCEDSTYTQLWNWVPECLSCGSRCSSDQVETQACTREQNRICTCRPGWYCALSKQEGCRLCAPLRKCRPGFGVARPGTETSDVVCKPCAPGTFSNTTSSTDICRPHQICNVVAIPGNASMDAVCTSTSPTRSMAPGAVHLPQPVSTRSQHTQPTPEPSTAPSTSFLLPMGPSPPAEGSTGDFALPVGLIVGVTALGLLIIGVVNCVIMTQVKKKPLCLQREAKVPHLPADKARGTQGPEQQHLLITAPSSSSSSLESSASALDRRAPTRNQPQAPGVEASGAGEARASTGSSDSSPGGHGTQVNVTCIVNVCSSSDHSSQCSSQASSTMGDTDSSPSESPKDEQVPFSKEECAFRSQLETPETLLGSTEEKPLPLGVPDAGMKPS
# T2: TNFR2 on human K562 chronic myeloid leukemia cells and on primary human Treg cells (human, UniProt P20333 23-461)
# T2 construct: whole, on cells; also called K562 cells
# T2 sequence (looked up): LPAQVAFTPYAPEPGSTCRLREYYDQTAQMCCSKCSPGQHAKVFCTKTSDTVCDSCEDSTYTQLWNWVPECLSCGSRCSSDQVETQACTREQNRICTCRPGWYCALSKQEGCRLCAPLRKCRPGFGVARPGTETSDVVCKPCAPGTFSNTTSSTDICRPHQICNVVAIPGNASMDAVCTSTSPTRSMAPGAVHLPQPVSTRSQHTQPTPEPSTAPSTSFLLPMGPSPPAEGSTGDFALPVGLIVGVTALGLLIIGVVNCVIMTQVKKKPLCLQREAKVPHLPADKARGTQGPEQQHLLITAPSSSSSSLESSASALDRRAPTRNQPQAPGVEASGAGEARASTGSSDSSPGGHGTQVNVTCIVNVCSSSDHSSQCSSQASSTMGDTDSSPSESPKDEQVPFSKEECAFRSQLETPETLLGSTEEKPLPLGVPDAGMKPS
# T3: cynomolgus monkey TNFR2 overexpressed on CHO-S cells (CHOS-cTNFR2) (cynomolgus monkey, UniProt P20333 23-461 (human entry))
# T3 construct: also called cTNFR2 CHO-S
# T3 chain: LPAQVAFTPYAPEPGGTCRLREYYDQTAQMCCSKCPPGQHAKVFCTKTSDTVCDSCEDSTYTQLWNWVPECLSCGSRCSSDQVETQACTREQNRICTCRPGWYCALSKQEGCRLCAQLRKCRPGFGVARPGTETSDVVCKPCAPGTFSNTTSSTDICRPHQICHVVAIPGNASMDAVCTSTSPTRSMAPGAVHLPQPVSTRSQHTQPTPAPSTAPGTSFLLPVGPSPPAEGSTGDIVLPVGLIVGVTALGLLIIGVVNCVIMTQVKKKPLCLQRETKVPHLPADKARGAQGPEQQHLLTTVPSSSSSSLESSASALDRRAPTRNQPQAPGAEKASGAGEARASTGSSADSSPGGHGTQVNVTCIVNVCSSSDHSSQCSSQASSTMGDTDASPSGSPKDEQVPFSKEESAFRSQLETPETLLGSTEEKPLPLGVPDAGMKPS
# Tests used:
# [1] = target: T1, human TNFR2 overexpressed on CHO-S …; experiment: flow cytometry on CHO-S cells overexpressing human TNFR2 (chimeric antibody 69B1 beside the humanized antibodies), MFI-FL2A; unit taken from the axis Conc log(nM)
# Protocol: In the study, the binding of the antibodies, after being diluted in a gradient, to a stable CHO-S strain line overexpressing human TNFR2 on the surface was assayed by using a flow cytometer.
# CHOS-hTNFR2 cells were counted and diluted to 2×10⁶ cells/mL, and added to a U-bottom 96-well plate at 100 μL/well. The mixture was centrifuged at 300 g for 5 min, and the cell medium was removed. Samples (the humanized antibodies hz3C4.7, hz69B1.5, hz69B1.6, hz69B1.11 and hz69B1.20, the chimeric antibody 69B1, and the positive control antibody OPI) (the antibodies were subjected to a three-fold dilution in PBS from the maximum antibody concentration of 300 nM) were added to the U-plate, and the cells were resuspended at 100 μL/well and left to stand on ice for 30 min. The suspension was centrifuged at 400 g for 5 min, and the supernatant was removed. The cells were washed twice with PBS. The mixture was centrifuged at 300 g for 5 min, and PBS was removed. 100 μL of anti-human Fc PE-labeled secondary antibody (SoutherBiotech; 2040-09) (diluted at a 1:100 ratio in PBS) was added to each well and incubated on ice for 30 min in the dark. The mixture was centrifuged at 400 g for 5 min, and the supernatant was removed. The cells were washed 3 times with PBS. The cells were resuspended in 200 μL of 1×PBS and assayed by FACS.
# [2] = target: T2, TNFR2 on human K562 chronic myeloid …; experiment: flow cytometry on human K562 CML cells, MFI(FL2); unit taken from the axis Conc log(nM)
# Protocol: Assay steps: The mixture was centrifuged at 400 g for 5 min, and the cell medium was removed. K562 or Treg cells were resuspended in PBS. After counting, the cells were adjusted to a density of 2×10⁶/mL, and the cell suspension was added to a U-bottom 96-well plate at 100 μL/well. The test antibody was added, subjected to a three-fold gradient dilution, and left to stand on ice for 30 min. The mixture was centrifuged at 300 g for 5 min, and the supernatant was removed. The cells were washed once with PBS. The mixture was centrifuged at 300 g for 5 min, and PBS was removed. 100 μL of PE-anti-human Fc antibody (SOUTHERN BIOTECH, 2040-09) diluted at a ratio of 1:200 was added to each well. The mixture was incubated on ice for 30 min in the dark. The mixture was centrifuged at 400 g for 5 min, and the supernatant was removed. The cells were washed twice with PBS. The cells were resuspended in 100 μL of PBS and assayed by using a flow cytometer (BD, ACCURIC6 plus).
# [3] = target: T3, cynomolgus monkey TNFR2 overexpressed …; experiment: flow cytometry on CHO-S cells overexpressing cynomolgus monkey TNFR2 (positive control), MFI-FL2-A; unit taken from the axis Conc log(nM)
# Protocol: In the study, the binding of the chimeric antibodies of the present invention, after being diluted in a gradient, to a stable CHO-S cell strain overexpressing human TNFR2 on the surface was assayed by using a flow cytometer. cDNAs encoding human TNFR2 (SEQ ID NO: 60) and cynomolgus monkey TNFR2 (SEQ ID NO: 61) were cloned into pCH01.0 vectors (Invitrogen), which were transfected into CHO-S cells (Invitrogen) to produce CHO-S cells overexpressing human TNFR2 (CHOS-hTNFR2) and CHO-S cells overexpressing cynomolgus monkey TNFR2 (CHOS-cTNFR2).
# CHOS-hTNFR2 cells or CHOS-cTNFR2 cells were counted and diluted to 2×10⁶ cells/mL, and added to a U-bottom 96-well plate at 100 μL/well. The mixture was centrifuged at 300 g for 5 min, and the cell medium was removed. The dilutions of the samples (the chimeric antibodies 3C4, 69B1, and 72G8 and the positive control antibody OPI) (the antibodies were subjected to a three-fold serial dilution in PBS from the maximum antibody concentration of 300 nM) were added to the U-plate, and the cells were resuspended at 100 μL/well and left to stand on ice for 30 min. The suspension was centrifuged at 400 g for 5 min, and the supernatant was removed. The cells were washed twice with PBS. The mixture was centrifuged at 300 g for 5 min, and PBS was removed. […]
EC50 [1] [pM],EC50 [2] [pM],EC50 [3] [pM],Binder
489,–,–,"chimeric antibody 69B1 (antibody, human IgG1, kappa, V domains shown) VH: QIQLVQSGPELKKPGETVKISCKASGYTFTDYSMNWVKQAPGKGLKWMGWLNTETGEPIYADDFKGRFVFSLETSASTAYLEINNLNDEDTATYFCAREAIYYGTSYVLDYWGQGTSVTVSS VL: DIVLTQSPASLAVSLGQRATISCRASESVEYYGTNFMQWYQQKPGQPPKLLIYSASNVESGVPARFSGSGSGTDFSLNIHPVEEDDIAVYFCQQSRKDPSTFGEGTNLEIKR"
–,91.6,432,"positive control antibody OPI (humanized antibody SBT-002e in WO 2017083525) (antibody, V domains shown, also called Benchmark OPI) VH: QVTLKESGPALVKPTQTLTLTCTFSGFSLSTSGMGVGWIRQPPGKALEWLAHIWWDDDKFYNPSLKSRLTISKDTSKNQVVLTMTNMDPVDTATYYCARLTGTRYFDYWGQGTTVTVSS VL: DVQMTQSPSSLSASVGDRVTITCKASQDINKFIAWYQQKPGKAPKLLIHYTSTLQPGIPSRFSGSGSGRDYTFTISSLQPEDIATYYCLQYGNLWTFGGGTKVEIK"
